Laboratory results reported in patent US20250215412A1 (NOVOZYMES A S, published 2025).

T1: Chryseobacterium sp-62563 deamidase polypeptide (second polypeptide, deamidase domain), wildtype (Chryseobacterium sp-62563)
T1 sequence: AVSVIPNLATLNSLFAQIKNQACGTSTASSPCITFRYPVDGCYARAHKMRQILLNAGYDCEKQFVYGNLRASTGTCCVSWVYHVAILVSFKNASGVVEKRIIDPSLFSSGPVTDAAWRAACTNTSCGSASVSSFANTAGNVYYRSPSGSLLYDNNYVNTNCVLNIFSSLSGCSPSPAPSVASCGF


target: T1, Chryseobacterium sp-62563 deamidase polypeptide (second polypeptide, deamidase domain), wildtype (Chryseobacterium sp-62563); assay: cell-based or functional assay

Binder	Relative activity of maturated deamidase (% initial rate)	NanoDSF thermal unfolding temperature [° C.]
Chryseobacterium sp-62563 propeptide F99V (protein) NQDPNLVAKESNETAMKDFGKTVPVGIEKEDGKFKISFMVTAQPYEIKDSKENAAYISMIKTAVENETPIHVFLKANTNEIAKVDKATDDDIRYFKSVVTKEVKEENRK	> 100	
Chryseobacterium sp-62563 propeptide P69D (protein) NQDPNLVAKESNETAMKDFGKTVPVGIEKEDGKFKISFMVTAQPYEIKDSKENAAYISMIKTAVENETDIHVFLKANTNEIAKVDKATDDDIRYFKSVFTKEVKEENRK	82	70.6
Chryseobacterium sp-62563 propeptide K96M (protein) NQDPNLVAKESNETAMKDFGKTVPVGIEKEDGKFKISFMVTAQPYEIKDSKENAAYISMIKTAVENETPIHVFLKANTNEIAKVDKATDDDIRYFMSVFTKEVKEENRK	45	
Chryseobacterium sp-62563 propeptide K96T (protein) NQDPNLVAKESNETAMKDFGKTVPVGIEKEDGKFKISFMVTAQPYEIKDSKENAAYISMIKTAVENETPIHVFLKANTNEIAKVDKATDDDIRYFTSVFTKEVKEENRK	34	
Chryseobacterium sp-62563 propeptide P69L (protein) NQDPNLVAKESNETAMKDFGKTVPVGIEKEDGKFKISFMVTAQPYEIKDSKENAAYISMIKTAVENETLIHVFLKANTNEIAKVDKATDDDIRYFKSVFTKEVKEENRK	43	81.5
Chryseobacterium sp-62563 propeptide F99H (protein) NQDPNLVAKESNETAMKDFGKTVPVGIEKEDGKFKISFMVTAQPYEIKDSKENAAYISMIKTAVENETPIHVFLKANTNEIAKVDKATDDDIRYFKSVHTKEVKEENRK	> 100	
Chryseobacterium sp-62563 propeptide K96Q (protein) NQDPNLVAKESNETAMKDFGKTVPVGIEKEDGKFKISFMVTAQPYEIKDSKENAAYISMIKTAVENETPIHVFLKANTNEIAKVDKATDDDIRYFQSVFTKEVKEENRK	> 100	
Chryseobacterium sp-62563 propeptide F99P (protein) NQDPNLVAKESNETAMKDFGKTVPVGIEKEDGKFKISFMVTAQPYEIKDSKENAAYISMIKTAVENETPIHVFLKANTNEIAKVDKATDDDIRYFKSVPTKEVKEENRK	33	
Chryseobacterium sp-62563 propeptide F99L (protein) NQDPNLVAKESNETAMKDFGKTVPVGIEKEDGKFKISFMVTAQPYEIKDSKENAAYISMIKTAVENETPIHVFLKANTNEIAKVDKATDDDIRYFKSVLTKEVKEENRK	46	
Chryseobacterium sp-62563 propeptide F99I (protein) NQDPNLVAKESNETAMKDFGKTVPVGIEKEDGKFKISFMVTAQPYEIKDSKENAAYISMIKTAVENETPIHVFLKANTNEIAKVDKATDDDIRYFKSVITKEVKEENRK	33	
Chryseobacterium sp-62563 propeptide K96L (protein) NQDPNLVAKESNETAMKDFGKTVPVGIEKEDGKFKISFMVTAQPYEIKDSKENAAYISMIKTAVENETPIHVFLKANTNEIAKVDKATDDDIRYFLSVFTKEVKEENRK	50	
Chryseobacterium sp-62563 propeptide K96Y (protein) NQDPNLVAKESNETAMKDFGKTVPVGIEKEDGKFKISFMVTAQPYEIKDSKENAAYISMIKTAVENETPIHVFLKANTNEIAKVDKATDDDIRYFYSVFTKEVKEENRK	73	
Chryseobacterium sp-62563 propeptide K96N (protein) NQDPNLVAKESNETAMKDFGKTVPVGIEKEDGKFKISFMVTAQPYEIKDSKENAAYISMIKTAVENETPIHVFLKANTNEIAKVDKATDDDIRYFNSVFTKEVKEENRK	55	
Chryseobacterium sp-62563 propeptide P69G (protein) NQDPNLVAKESNETAMKDFGKTVPVGIEKEDGKFKISFMVTAQPYEIKDSKENAAYISMIKTAVENETGIHVFLKANTNEIAKVDKATDDDIRYFKSVFTKEVKEENRK	35	77
Chryseobacterium sp-62563 propeptide P69M (protein) NQDPNLVAKESNETAMKDFGKTVPVGIEKEDGKFKISFMVTAQPYEIKDSKENAAYISMIKTAVENETMIHVFLKANTNEIAKVDKATDDDIRYFKSVFTKEVKEENRK	67	79.1
Chryseobacterium sp-62563 propeptide K96V (protein) NQDPNLVAKESNETAMKDFGKTVPVGIEKEDGKFKISFMVTAQPYEIKDSKENAAYISMIKTAVENETPIHVFLKANTNEIAKVDKATDDDIRYFVSVFTKEVKEENRK	41	
Chryseobacterium sp-62563 propeptide K96W (protein) NQDPNLVAKESNETAMKDFGKTVPVGIEKEDGKFKISFMVTAQPYEIKDSKENAAYISMIKTAVENETPIHVFLKANTNEIAKVDKATDDDIRYFWSVFTKEVKEENRK	51	

Other lines, results leading:

Relative activity of maturated deamidase (% initial rate)	NanoDSF thermal unfolding temperature [° C.]	Binder
54		Chryseobacterium sp-62563 propeptide V98H (protein) NQDPNLVAKESNETAMKDFGKTVPVGIEKEDGKFKISFMVTAQPYEIKDSKENAAYISMIKTAVENETPIHVFLKANTNEIAKVDKATDDDIRYFKSHFTKEVKEENRK
> 100		Chryseobacterium sp-62563 propeptide V98Q (protein) NQDPNLVAKESNETAMKDFGKTVPVGIEKEDGKFKISFMVTAQPYEIKDSKENAAYISMIKTAVENETPIHVFLKANTNEIAKVDKATDDDIRYFKSQFTKEVKEENRK
65		Chryseobacterium sp-62563 propeptide V98C (protein) NQDPNLVAKESNETAMKDFGKTVPVGIEKEDGKFKISFMVTAQPYEIKDSKENAAYISMIKTAVENETPIHVFLKANTNEIAKVDKATDDDIRYFKSCFTKEVKEENRK
70		Chryseobacterium sp-62563 propeptide V98T (protein) NQDPNLVAKESNETAMKDFGKTVPVGIEKEDGKFKISFMVTAQPYEIKDSKENAAYISMIKTAVENETPIHVFLKANTNEIAKVDKATDDDIRYFKSTFTKEVKEENRK
> 100		Chryseobacterium sp-62563 propeptide V98K (protein) NQDPNLVAKESNETAMKDFGKTVPVGIEKEDGKFKISFMVTAQPYEIKDSKENAAYISMIKTAVENETPIHVFLKANTNEIAKVDKATDDDIRYFKSKFTKEVKEENRK
> 100		Chryseobacterium sp-62563 propeptide V98G (protein) NQDPNLVAKESNETAMKDFGKTVPVGIEKEDGKFKISFMVTAQPYEIKDSKENAAYISMIKTAVENETPIHVFLKANTNEIAKVDKATDDDIRYFKSGFTKEVKEENRK
	78.1	Chryseobacterium sp-62563 propeptide Y45R (protein) NQDPNLVAKESNETAMKDFGKTVPVGIEKEDGKFKISFMVTAQPREIKDSKENAAYISMIKTAVENETPIHVFLKANTNEIAKVDKATDDDIRYFKSVFTKEVKEENRK
> 100		Chryseobacterium sp-62563 propeptide V98N (protein) NQDPNLVAKESNETAMKDFGKTVPVGIEKEDGKFKISFMVTAQPYEIKDSKENAAYISMIKTAVENETPIHVFLKANTNEIAKVDKATDDDIRYFKSNFTKEVKEENRK
> 100		Chryseobacterium sp-62563 propeptide V98R (protein) NQDPNLVAKESNETAMKDFGKTVPVGIEKEDGKFKISFMVTAQPYEIKDSKENAAYISMIKTAVENETPIHVFLKANTNEIAKVDKATDDDIRYFKSRFTKEVKEENRK
41		Chryseobacterium sp-62563 propeptide V98M (protein) NQDPNLVAKESNETAMKDFGKTVPVGIEKEDGKFKISFMVTAQPYEIKDSKENAAYISMIKTAVENETPIHVFLKANTNEIAKVDKATDDDIRYFKSMFTKEVKEENRK
> 100	74.1	Chryseobacterium sp-62563 propeptide P69Q (protein) NQDPNLVAKESNETAMKDFGKTVPVGIEKEDGKFKISFMVTAQPYEIKDSKENAAYISMIKTAVENETQIHVFLKANTNEIAKVDKATDDDIRYFKSVFTKEVKEENRK
68		Chryseobacterium sp-62563 propeptide V98A (protein) NQDPNLVAKESNETAMKDFGKTVPVGIEKEDGKFKISFMVTAQPYEIKDSKENAAYISMIKTAVENETPIHVFLKANTNEIAKVDKATDDDIRYFKSAFTKEVKEENRK
30		Chryseobacterium sp-62563 propeptide S97R (protein) NQDPNLVAKESNETAMKDFGKTVPVGIEKEDGKFKISFMVTAQPYEIKDSKENAAYISMIKTAVENETPIHVFLKANTNEIAKVDKATDDDIRYFKRVFTKEVKEENRK
98		Chryseobacterium sp-62563 propeptide V98S (protein) NQDPNLVAKESNETAMKDFGKTVPVGIEKEDGKFKISFMVTAQPYEIKDSKENAAYISMIKTAVENETPIHVFLKANTNEIAKVDKATDDDIRYFKSSFTKEVKEENRK
> 100		Chryseobacterium sp-62563 propeptide V98E (protein) NQDPNLVAKESNETAMKDFGKTVPVGIEKEDGKFKISFMVTAQPYEIKDSKENAAYISMIKTAVENETPIHVFLKANTNEIAKVDKATDDDIRYFKSEFTKEVKEENRK
